Assay results: patent US20140221281A1 (Sanofi, published 2014)
Where two headings read alike, the source gives them in different places. *1 amine or outer side, *2 acyl side, *3 side chain or, on linkers, in order; H or OH if unused. Where no end group is shown, it is not given here. Side-chain parts run from the residue outwards. [ ]: non-standard residue; d: D form. The star is where a group is joined. γGlu = O=C(O)[C@H](CCC(=O)[*:2])N[*:1]; Stearoyl = CCCCCCCCCCCCCCCCCC(=O)*; Palmitoyl = CCCCCCCCCCCCCCCC(=O)*; αMeOrn = C[C@](N)(CCCN)C(=O)O; αMeK = C[C@](N)(CCCCN)C(=O)O; Aib = CC(C)(N)C(=O)O

T1: human GIP receptor (human, UniProt P48546 22-466)
T1 sequence (looked up): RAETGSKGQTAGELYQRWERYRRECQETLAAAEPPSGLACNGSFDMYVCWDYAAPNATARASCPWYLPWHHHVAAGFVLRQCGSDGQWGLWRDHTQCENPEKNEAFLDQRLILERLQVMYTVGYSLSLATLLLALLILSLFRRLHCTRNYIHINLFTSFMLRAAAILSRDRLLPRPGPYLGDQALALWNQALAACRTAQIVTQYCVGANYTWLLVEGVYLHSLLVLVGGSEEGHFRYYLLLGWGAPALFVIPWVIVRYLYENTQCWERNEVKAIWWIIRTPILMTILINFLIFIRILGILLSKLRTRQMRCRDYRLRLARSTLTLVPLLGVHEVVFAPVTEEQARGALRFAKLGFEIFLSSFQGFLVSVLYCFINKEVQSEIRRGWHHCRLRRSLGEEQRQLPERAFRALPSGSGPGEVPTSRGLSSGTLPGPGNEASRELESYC

B1: SEQ ID NO: 11 (peptide)
peptide: Y[Aib]EGTFTSDLSIQK([γGlu-Palmitoyl])EERAA[αMeK]EFIEWLKNTGPSSGAPPPS-NH2
modifications: N-terminus assumed
SMILES: CCCCCCCCCCCCCCCC(=O)N[C@@H](CCC(=O)NCCCC[C@H](NC(=O)[C@H](CCC(N)=O)NC(=O)[C@@H](NC(=O)[C@H](CO)NC(=O)[C@H](CC(C)C)NC(=O)[C@H](CC(=O)O)NC(=O)[C@H](CO)NC(=O)[C@@H](NC(=O)[C@H](Cc1ccccc1)NC(=O)[C@@H](NC(=O)CNC(=O)[C@H](CCC(=O)O)NC(=O)C(C)(C)NC(=O)[C@@H](N)Cc1ccc(O)cc1)[C@@H](C)O)[C@@H](C)O)[C@@H](C)CC)C(=O)N[C@@H](CCC(=O)O)C(=O)N[C@@H](CCC(=O)O)C(=O)N[C@@H](CCCNC(=N)N)C(=O)N[C@@H](C)C(=O)N[C@@H](C)C(=O)N[C@@](C)(CCCCN)C(=O)N[C@@H](CCC(=O)O)C(=O)N[C@@H](Cc1ccccc1)C(=O)N[C@H](C(=O)N[C@@H](CCC(=O)O)C(=O)N[C@@H](Cc1c[nH]c2ccccc12)C(=O)N[C@@H](CC(C)C)C(=O)N[C@@H](CCCCN)C(=O)N[C@@H](CC(N)=O)C(=O)N[C@H](C(=O)NCC(=O)N1CCC[C@H]1C(=O)N[C@@H](CO)C(=O)N[C@@H](CO)C(=O)NCC(=O)N[C@@H](C)C(=O)N1CCC[C@H]1C(=O)N1CCC[C@H]1C(=O)N1CCC[C@H]1C(=O)N[C@@H](CO)C(N)=O)[C@@H](C)O)[C@@H](C)CC)C(=O)O
B2: SEQ ID NO: 15 (peptide)
peptide: Y[Aib]QGTFTSDLSIQK([γGlu-Stearoyl])DEQRA[αMeOrn]EFIEWLKAGGPSSGAPPPS-NH2
modifications: N-terminus assumed
SMILES: CCCCCCCCCCCCCCCCCC(=O)N[C@@H](CCC(=O)NCCCC[C@H](NC(=O)[C@H](CCC(N)=O)NC(=O)[C@@H](NC(=O)[C@H](CO)NC(=O)[C@H](CC(C)C)NC(=O)[C@H](CC(=O)O)NC(=O)[C@H](CO)NC(=O)[C@@H](NC(=O)[C@H](Cc1ccccc1)NC(=O)[C@@H](NC(=O)CNC(=O)[C@H](CCC(N)=O)NC(=O)C(C)(C)NC(=O)[C@@H](N)Cc1ccc(O)cc1)[C@@H](C)O)[C@@H](C)O)[C@@H](C)CC)C(=O)N[C@@H](CC(=O)O)C(=O)N[C@@H](CCC(=O)O)C(=O)N[C@@H](CCC(N)=O)C(=O)N[C@@H](CCCNC(=N)N)C(=O)N[C@@H](C)C(=O)N[C@@](C)(CCCN)C(=O)N[C@@H](CCC(=O)O)C(=O)N[C@@H](Cc1ccccc1)C(=O)N[C@H](C(=O)N[C@@H](CCC(=O)O)C(=O)N[C@@H](Cc1c[nH]c2ccccc12)C(=O)N[C@@H](CC(C)C)C(=O)N[C@@H](CCCCN)C(=O)N[C@@H](C)C(=O)NCC(=O)NCC(=O)N1CCC[C@H]1C(=O)N[C@@H](CO)C(=O)N[C@@H](CO)C(=O)NCC(=O)N[C@@H](C)C(=O)N1CCC[C@H]1C(=O)N1CCC[C@H]1C(=O)N1CCC[C@H]1C(=O)N[C@@H](CO)C(N)=O)[C@@H](C)CC)C(=O)O
B3: SEQ ID NO: 17 (peptide)
peptide: Y[Aib]EGTFTSDLSIQLEERAA[αMeK]EFIEWLKNTGPSSGAPPPS-NH2
modifications: N-terminus assumed
SMILES: CC[C@H](C)[C@H](NC(=O)[C@H](CO)NC(=O)[C@H](CC(C)C)NC(=O)[C@H](CC(=O)O)NC(=O)[C@H](CO)NC(=O)[C@@H](NC(=O)[C@H](Cc1ccccc1)NC(=O)[C@@H](NC(=O)CNC(=O)[C@H](CCC(=O)O)NC(=O)C(C)(C)NC(=O)[C@@H](N)Cc1ccc(O)cc1)[C@@H](C)O)[C@@H](C)O)C(=O)N[C@@H](CCC(N)=O)C(=O)N[C@@H](CC(C)C)C(=O)N[C@@H](CCC(=O)O)C(=O)N[C@@H](CCC(=O)O)C(=O)N[C@@H](CCCNC(=N)N)C(=O)N[C@@H](C)C(=O)N[C@@H](C)C(=O)N[C@@](C)(CCCCN)C(=O)N[C@@H](CCC(=O)O)C(=O)N[C@@H](Cc1ccccc1)C(=O)N[C@H](C(=O)N[C@@H](CCC(=O)O)C(=O)N[C@@H](Cc1c[nH]c2ccccc12)C(=O)N[C@@H](CC(C)C)C(=O)N[C@@H](CCCCN)C(=O)N[C@@H](CC(N)=O)C(=O)N[C@H](C(=O)NCC(=O)N1CCC[C@H]1C(=O)N[C@@H](CO)C(=O)N[C@@H](CO)C(=O)NCC(=O)N[C@@H](C)C(=O)N1CCC[C@H]1C(=O)N1CCC[C@H]1C(=O)N1CCC[C@H]1C(=O)N[C@@H](CO)C(N)=O)[C@@H](C)O)[C@@H](C)CC
B4: SEQ ID NO: 16 (peptide)
peptide: Y[Aib]EGTFTSDLSIQK([γGlu-Palmitoyl])EERAA[αMeK]EFIEWLKAGGPSSGAPPPS-NH2
modifications: N-terminus assumed
SMILES: CCCCCCCCCCCCCCCC(=O)N[C@@H](CCC(=O)NCCCC[C@H](NC(=O)[C@H](CCC(N)=O)NC(=O)[C@@H](NC(=O)[C@H](CO)NC(=O)[C@H](CC(C)C)NC(=O)[C@H](CC(=O)O)NC(=O)[C@H](CO)NC(=O)[C@@H](NC(=O)[C@H](Cc1ccccc1)NC(=O)[C@@H](NC(=O)CNC(=O)[C@H](CCC(=O)O)NC(=O)C(C)(C)NC(=O)[C@@H](N)Cc1ccc(O)cc1)[C@@H](C)O)[C@@H](C)O)[C@@H](C)CC)C(=O)N[C@@H](CCC(=O)O)C(=O)N[C@@H](CCC(=O)O)C(=O)N[C@@H](CCCNC(=N)N)C(=O)N[C@@H](C)C(=O)N[C@@H](C)C(=O)N[C@@](C)(CCCCN)C(=O)N[C@@H](CCC(=O)O)C(=O)N[C@@H](Cc1ccccc1)C(=O)N[C@H](C(=O)N[C@@H](CCC(=O)O)C(=O)N[C@@H](Cc1c[nH]c2ccccc12)C(=O)N[C@@H](CC(C)C)C(=O)N[C@@H](CCCCN)C(=O)N[C@@H](C)C(=O)NCC(=O)NCC(=O)N1CCC[C@H]1C(=O)N[C@@H](CO)C(=O)N[C@@H](CO)C(=O)NCC(=O)N[C@@H](C)C(=O)N1CCC[C@H]1C(=O)N1CCC[C@H]1C(=O)N1CCC[C@H]1C(=O)N[C@@H](CO)C(N)=O)[C@@H](C)CC)C(=O)O

Columns and labels:
Assay in all cases: cell-based or functional assay
human GIP receptor [1] = target: T1, human GIP receptor
human GLP-1 receptor [2] = target: T2, human GLP-1 receptor (human, UniProt P43220 24-463)
human glucagon receptor = human glucagon receptor (human, UniProt P47871 26-477)
human GIP receptor [3] = target: T1, human GIP receptor; remark: listed apart in the source
human GLP-1 receptor [4] = target: T2, human GLP-1 receptor; remark: listed apart in the source
human GIP receptor [5] = target: T1, human GIP receptor; remark: listed apart in the source
human GLP-1 receptor [6] = target: T2, human GLP-1 receptor; remark: listed apart in the source
Target sequence in this assay (P43220 24-463): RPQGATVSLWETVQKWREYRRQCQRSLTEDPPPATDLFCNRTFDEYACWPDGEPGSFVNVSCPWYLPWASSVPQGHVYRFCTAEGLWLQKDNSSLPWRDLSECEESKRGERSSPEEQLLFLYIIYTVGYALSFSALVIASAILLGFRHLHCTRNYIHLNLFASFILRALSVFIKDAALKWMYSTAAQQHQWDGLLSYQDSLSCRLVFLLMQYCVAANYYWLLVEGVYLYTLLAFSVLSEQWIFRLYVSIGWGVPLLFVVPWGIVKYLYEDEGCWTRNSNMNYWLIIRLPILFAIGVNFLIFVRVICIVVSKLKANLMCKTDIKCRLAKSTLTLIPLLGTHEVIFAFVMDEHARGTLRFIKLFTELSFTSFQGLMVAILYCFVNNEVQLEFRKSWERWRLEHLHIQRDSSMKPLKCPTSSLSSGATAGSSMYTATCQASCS

Chain of human glucagon receptor (P47871 26-477): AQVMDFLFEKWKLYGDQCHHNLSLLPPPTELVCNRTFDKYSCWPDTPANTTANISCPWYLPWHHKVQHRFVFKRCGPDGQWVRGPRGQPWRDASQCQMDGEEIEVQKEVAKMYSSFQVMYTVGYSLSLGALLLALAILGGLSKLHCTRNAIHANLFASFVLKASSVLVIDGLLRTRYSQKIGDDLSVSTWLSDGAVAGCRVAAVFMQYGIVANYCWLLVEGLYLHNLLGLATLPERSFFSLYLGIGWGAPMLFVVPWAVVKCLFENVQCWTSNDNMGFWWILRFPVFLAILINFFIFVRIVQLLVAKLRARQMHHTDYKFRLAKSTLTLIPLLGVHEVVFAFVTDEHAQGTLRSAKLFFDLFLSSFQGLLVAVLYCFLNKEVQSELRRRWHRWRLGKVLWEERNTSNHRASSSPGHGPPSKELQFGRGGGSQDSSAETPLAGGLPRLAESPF

Binder	EC50 hGIPR [pM] (cAMP formation) (human GIP receptor [1])	EC50 hGLP-1 R [pM] (cAMP formation) (human GLP-1 receptor [2])	EC50 hGLUC R [pM] (cAMP formation) (human glucagon receptor)	EC50 hGIP R [pM] (cAMP formation) (human GIP receptor [3])	EC50 hGLP-1 R [pM] (cAMP formation) (human GLP-1 receptor [4])	EC50 hGIP R [pM] (cAMP formation) (human GIP receptor [5])	EC50 hGLP-1 R [pM] (cAMP formation) (human GLP-1 receptor [6])
B1	7 pM	5.1 pM	3160 pM	7 pM	5.1 pM	–	–
B2	–	–	4 pM	8.9 pM	16.1 pM	–	–
B3	163 pM	5.9 pM	–	–	–	–	–
YAEGTFTSDVSIYLEGQAAKEFIAWLVKGR-NH2 [Tyr(1)Ile(12)-GLP1]	–	–	–	–	–	3660 pM	5 pM
B4	–	–	19800 pM	2.5 pM	4.1 pM	–	–
